Substitutions are numbered along the chain they refer to. Names may count otherwise.

T1: EsCas13d, nuclease-dead (Eubacterium siraeum, UniProt B0MS50, R295A;H300A;R849A;H854A)
T1 sequence: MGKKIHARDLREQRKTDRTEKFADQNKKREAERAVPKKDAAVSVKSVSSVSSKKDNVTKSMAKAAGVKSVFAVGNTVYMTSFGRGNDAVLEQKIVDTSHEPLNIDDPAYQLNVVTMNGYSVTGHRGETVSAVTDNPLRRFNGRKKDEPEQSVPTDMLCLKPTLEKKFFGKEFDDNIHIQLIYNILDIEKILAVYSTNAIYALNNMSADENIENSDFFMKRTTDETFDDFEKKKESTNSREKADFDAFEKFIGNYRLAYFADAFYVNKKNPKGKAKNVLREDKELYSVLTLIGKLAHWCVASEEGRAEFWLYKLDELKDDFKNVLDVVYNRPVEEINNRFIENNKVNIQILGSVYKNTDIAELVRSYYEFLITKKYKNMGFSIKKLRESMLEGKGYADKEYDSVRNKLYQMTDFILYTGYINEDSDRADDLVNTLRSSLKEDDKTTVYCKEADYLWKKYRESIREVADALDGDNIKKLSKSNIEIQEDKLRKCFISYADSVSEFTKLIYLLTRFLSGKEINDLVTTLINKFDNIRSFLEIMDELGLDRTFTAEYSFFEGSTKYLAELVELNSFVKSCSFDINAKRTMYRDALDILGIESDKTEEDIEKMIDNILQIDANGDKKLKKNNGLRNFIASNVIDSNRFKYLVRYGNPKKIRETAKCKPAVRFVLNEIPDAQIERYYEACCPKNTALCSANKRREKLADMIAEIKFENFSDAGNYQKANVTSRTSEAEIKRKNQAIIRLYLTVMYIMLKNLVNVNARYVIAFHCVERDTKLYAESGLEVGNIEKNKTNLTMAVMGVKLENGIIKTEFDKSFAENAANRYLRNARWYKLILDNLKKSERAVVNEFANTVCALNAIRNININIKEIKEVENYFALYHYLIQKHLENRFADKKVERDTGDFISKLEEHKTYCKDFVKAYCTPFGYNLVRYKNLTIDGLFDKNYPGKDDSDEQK

B1: target 2 MT 5'PFS UAG 3'PFS CUC (mixed)
RNA 1: CACCCGUGCAAAAUUGCAGGGGUCUAAAACCUUCUCCAAAUUGUUUCAUCCU
RNA 2: GGGAAUGGAUCCACAUCUACGAAUUCUAGAGGAUGAAACAAUUUGGAGAAGCUCAGAUCGGAAGAGCACACGU
B2: target 2 MT 5'PFS GGA 3'PFS AAA (mixed)
RNA 1: B1 RNA 1
RNA 2: B1 RNA 2 with U27G, A28G, G29A, C52A, U53A, C54A
B3: target 2 MT 5'PFS CAG 3'PFS AAA (mixed)
RNA 1: B1 RNA 1
RNA 2: B1 RNA 2 with U27C, C52A, U53A, C54A
B4: target 2 MT 5'PFS GUA 3'PFS CCA (mixed)
RNA 1: B1 RNA 1
RNA 2: B1 RNA 2 with U27G, A28U, G29A, U53C, C54A
B5: target 2 MT 5'PFS UUG 3'PFS UCC (mixed)
RNA 1: B1 RNA 1
RNA 2: B1 RNA 2 with A28U, C52U, U53C
B6: target 2 MT 5'PFS UGU 3'PFS CGC (mixed)
RNA 1: B1 RNA 1
RNA 2: B1 RNA 2 with A28G, G29U, U53G
B7: target 2 MT 5'PFS GCA 3'PFS AUU (mixed)
RNA 1: B1 RNA 1
RNA 2: B1 RNA 2 with U27G, A28C, G29A, C52A, C54U
B8: target 2 MT 5'PFS UGU 3'PFS CGA (mixed)
RNA 1: B1 RNA 1
RNA 2: B1 RNA 2 with A28G, G29U, U53G, C54A
B9: target 2 MT 5'PFS ACG 3'PFS CUU (mixed)
RNA 1: B1 RNA 1
RNA 2: B1 RNA 2 with U27A, A28C, C54U
B10: target 2 MT 5'PFS UUG 3'PFS ACC (mixed)
RNA 1: B1 RNA 1
RNA 2: B1 RNA 2 with A28U, C52A, U53C
B11: target 2 MT 5'PFS UGC 3'PFS UGC (mixed)
RNA 1: B1 RNA 1
RNA 2: B1 RNA 2 with A28G, G29C, C52U, U53G
B12: target 2 MT 5'PFS GGG 3'PFS CCA (mixed)
RNA 1: B1 RNA 1
RNA 2: B1 RNA 2 with U27G, A28G, U53C, C54A
B13: target 2 MT 5'PFS GCA 3'PFS AUG (mixed)
RNA 1: B1 RNA 1
RNA 2: B1 RNA 2 with U27G, A28C, G29A, C52A, C54G
B14: target 2 MT 5'PFS UAA 3'PFS AUC (mixed)
RNA 1: B1 RNA 1
RNA 2: B1 RNA 2 with G29A, C52A
B15: target 2 MT 5'PFS GGG 3'PFS CCG (mixed)
RNA 1: B1 RNA 1
RNA 2: B1 RNA 2 with U27G, A28G, U53C, C54G
B16: target 2 MT 5'PFS GGA 3'PFS AAU (mixed)
RNA 1: B1 RNA 1
RNA 2: B1 RNA 2 with U27G, A28G, G29A, C52A, U53A, C54U
B17: target 2 MT 5'PFS ACA 3'PFS CCG (mixed)
RNA 1: B1 RNA 1
RNA 2: B1 RNA 2 with U27A, A28C, G29A, U53C, C54G
B18: target 2 MT 5'PFS GCA 3'PFS AUC (mixed)
RNA 1: B1 RNA 1
RNA 2: B1 RNA 2 with U27G, A28C, G29A, C52A
B19: target 2 MT 5'PFS GGA 3'PFS AAC (mixed)
RNA 1: B1 RNA 1
RNA 2: B1 RNA 2 with U27G, A28G, G29A, C52A, U53A
B20: target 2 MT 5'PFS GCA 3'PFS AUA (mixed)
RNA 1: B1 RNA 1
RNA 2: B1 RNA 2 with U27G, A28C, G29A, C52A, C54A
B21: target 2 MT 5'PFS GUG 3'PFS UAG (mixed)
RNA 1: B1 RNA 1
RNA 2: B1 RNA 2 with U27G, A28U, C52U, U53A, C54G
B22: target 2 MT 5'PFS UAA 3'PFS AUG (mixed)
RNA 1: B1 RNA 1
RNA 2: B1 RNA 2 with G29A, C52A, C54G
B23: target 2 MT 5'PFS UUG 3'PFS ACA (mixed)
RNA 1: B1 RNA 1
RNA 2: B1 RNA 2 with A28U, C52A, U53C, C54A
B24: target 2 MT 5'PFS AAC 3'PFS AGC (mixed)
RNA 1: B1 RNA 1
RNA 2: B1 RNA 2 with U27A, G29C, C52A, U53G
B25: target 2 MT 5'PFS UUG 3'PFS ACU (mixed)
RNA 1: B1 RNA 1
RNA 2: B1 RNA 2 with A28U, C52A, U53C, C54U
B26: target 2 MT 5'PFS UUG 3'PFS ACG (mixed)
RNA 1: B1 RNA 1
RNA 2: B1 RNA 2 with A28U, C52A, U53C, C54G
B27: target 2 MT 5'PFS GGA 3'PFS AAG (mixed)
RNA 1: B1 RNA 1
RNA 2: B1 RNA 2 with U27G, A28G, G29A, C52A, U53A, C54G
B28: target 2 MT 5'PFS UAG 3'PFS CUA (mixed)
RNA 1: B1 RNA 1
RNA 2: B1 RNA 2 with C54A
B29: target 1 C4A,C6A (mixed)
RNA 1: CACCCGUGCAAAAAUGCAGGGGUCUAAAACUGAGCGGAUAACCUCUCUAUGG
RNA 2: GGGAAUGGAUCCACAUCUACGAAUUCGUACCAUAGAGAGGUUAUCAGAUCACCGAGAUCGGAAGAGCACACGU
B30: target 1 insG 3' of 22,insA 3' of 7 (mixed)
RNA 1: B29 RNA 1
RNA 2: GGGAAUGGAUCCACAUCUACGAAUUCGUACGCAUAGAGAGGUUAUCACGCUCACCGAGAUCGGAAGAGCACACGU
B31: target 1 insU 3' of 18,insG 3' of 8 (mixed)
RNA 1: B29 RNA 1
RNA 2: B30 RNA 2 with G31C, C32A, A33U, U34A, A35U, C46G, A47C

The target of this data set is T1, EsCas13d, nuclease-dead. Nature of the data set: crRNA (strand 1, pre-loaded); Mg2+; 40 mM Tris-HCl pH 7.5, 150 mM NaCl, 6 mM MgCl2, 1 mM DTT, 0.1% Tween-20, 0.2 mg/ml BSA; 25 C; 10 min per concentration, then washed. The conditions noted are these: tags: His6-TwinStrep-SUMO cleaved; N-terminal SNAP kept (SNAP-Surface 488); label: 3' end held by stalled T7 RNA polymerase.
As for B1, binding was characterised by a dissociation constant (Kd) of 4.4 ± 0.4 nM.
The figure for B2 is 8.6 ± 1.9 nM; for B3 it is 7.5 ± 2 nM.
With B4, the Kd (as a rule, a measure of binding affinity in units of concentration) is 17.3 ± 2.4 nM.
The value for B5 was 42 ± 7 nM.
In the case of B6, the Kd turned out to be 18.5 ± 2.9 nM.
The value for B7 was 10.3 ± 1 nM.
The figure for B8 is 10.3 ± 1.7 nM; for B9 it is 11.1 ± 2.1 nM; for B10 it is 47 ± 10 nM.
Consider B11, for which the Kd worked out at 64 ± 18 nM.
The value for B12 was 25 ± 5 nM; that for B13 was 8.8 ± 0.9 nM.
The figure for B14 is 5.1 ± 0.5 nM.
Turning to B15, binding was put at a Kd of 11.6 ± 0.9 nM.
The figure for B16 is 6.7 ± 0.6 nM.
B17 gave a Kd of 6.3 ± 1 nM.
Molecule B18 displayed a Kd of 14 ± 4 nM.
Turning to B19, binding was put at a Kd of 7.4 ± 0.7 nM.
The figure for B20 is 7.2 ± 1 nM; for B21 it is 13.3 ± 1.3 nM.
The molecule B22 came in with a Kd of 5.6 ± 1.5 nM.
The figure for B23 is 15 ± 1.4 nM; for B24 it is 4.4 ± 1.5 nM.
The figure for B25 is 16.2 ± 1.8 nM; for B26 it is 18.5 ± 1.6 nM; for B27 it is 9.3 ± 1.4 nM.
In turn, B28 showed a Kd of 3.6 ± 0.5 nM.
Turning to B29, the Kd was found to be 6.17 ± 0.31 nM.
B30 came in with a Kd of 15.2 ± 1 nM.
The value for B31 was 41 ± 4 nM.
